Measurements taken from paper doi:10.1101/2023.09.15.557927.

Molecular target: FITC-labeled BMF peptide (FITC-…)
Experiment: fluorescence polarisation

Sequence of 6xHis-tagged LC8 (DYNLL2) (Q96FJ2 whole entry): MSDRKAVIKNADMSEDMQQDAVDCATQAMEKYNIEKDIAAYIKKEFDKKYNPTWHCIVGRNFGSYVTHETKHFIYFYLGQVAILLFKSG

6xHis-tagged LC8 (DYNLL2) (from UniProt Q96FJ2 1-89) (natural protein)
LC8 concentration at 80% saturation of the labeled BMF peptide: 12 µM
